Reference: the supplement of paper PMC10724198
± gives the standard deviation of the averaged measurements.

Key:
[1] = tested on: Saccharomyces cerevisiae; assay: protein stability index of tFT-peptide fusion (C-terminal peptide) (PSI (0-1 scale)); higher = more stable (slower turnover)
Procedure: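 MPS profiling in S. cerevisiae of the tFT-X12 degron library: putative degron peptides plus stable controls, 12 aa, fused to the C-terminus of a sfGFP-mCherry timer. Cells are FACS-sorted into 8 mCherry/sfGFP bins and deep-sequenced. PSI runs from 0 (unstable) to 1 (stable). Backgrounds are wild type, das1Δ and doa10Δ at 30 °C, and wild type, das1Δ, cdc34-1 and cdc53-1 at 37 °C; 2-3 technical replicates each.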

[2] = tested on: Saccharomyces cerevisiae; assay: as above; settings: genetic background: wild type; temperature: 30 C
[3] = genetic background: cdc34-1, temperature: 37 C
[4] = genetic background: cdc53-1, temperature: 37 C
[5] = genetic background: das1 deletion, temperature: 30 C
[6] = genetic background: das1 deletion, temperature: 37 C
[7] = genetic background: doa10 deletion, temperature: 30 C
[8] = genetic background: wild type, temperature: 30 C
[9] = genetic background: wild type, temperature: 37 C
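Further: PSI is a weighted mean of sequencing reads over stability bins, variants kept only with over 10 reads, mCherry proximal and sfGFP distal, peptide attached via GGGS linker.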

Row | Sequence | protein stability index [1, 3] | protein stability index [1, 4] | protein stability index [1, 5] | protein stability index [1, 6] | protein stability index [1, 7] | protein stability index [1, 8] | protein stability index [1, 9] | protein stability index [2]
1 | TSPYTSFAHTSL | 0.694 ± 0.029 | 0.739 ± 0.016 | 0.677 ± 0.031 | 0.739 ± 0.0074 | 0.662 ± 0.017 | 0.6569 ± 0.006 | 0.71286 ± 0.00012 | 0.69 ± 0.022
2 | VAFGVASGWCWF | 0.748 ± 0.048 | 0.8066 ± 0.0046 | 0.687 ± 0.016 | 0.848 ± 0.0032 | 0.373 ± 0.0093 | 0.397 ± 0.015 | 0.6902 ± 0.0057 | 0.488 ± 0.02
3 | VAFILVVCKGIG | 0.187 ± 0.029 | 0.2776 ± 0.0022 | 0.175 ± 0.016 | 0.327 ± 0.0048 | 0.122 ± 0.015 | 0.152 ± 0.013 | 0.287 ± 0.0077 | 0.2024 ± 0.00042
4 | VAWWVCIRSCCG | 0.51 ± 0.023 | 0.55 ± 0.057 | 0.427 ± 0.027 | 0.577 ± 0.012 | 0.353 ± 0.012 | 0.395 ± 0.015 | 0.53 ± 0.0066 | 0.486 ± 0.028
5 | VCCSSVSLLVFA | 0.362 ± 0.017 | 0.363 ± 0.01 | 0.267 ± 0.028 | 0.44 ± 0.0076 | 0.225 ± 0.0042 | 0.256 ± 0.033 | 0.419 ± 0.01 | 0.374 ± 0.023
6 | VCGYGFAVPCYT | 0.489 ± 0.013 | 0.549 ± 0.021 | 0.37 ± 0.026 | 0.5832 ± 0.0026 | 0.327 ± 0.012 | 0.372 ± 0.012 | 0.535 ± 0.0076 | 0.437 ± 0.02
7 | VCILLVAWCLMG | 0.168 ± 0.023 | 0.289 ± 0.049 | 0.24 ± 0.022 | 0.384 ± 0.0058 | 0.108 ± 0.02 | 0.124 ± 0.02 | 0.1546 ± 0.00053 | 0.217 ± 0.0097
8 | VCLLGWGVRLVS | 0.667 ± 0.031 | 0.7294 ± 0.0045 | 0.609 ± 0.038 | 0.72374 ± 7.5e-05 | 0.321 ± 0.0052 | 0.371 ± 0.023 | 0.576 ± 0.01 | 0.505 ± 0.079
9 | VCMHIVLLAASP | 0.244 ± 0.02 | 0.317 ± 0.017 | 0.187 ± 0.0068 | 0.284 ± 0.014 | 0.201 ± 0.028 | 0.202 ± 0.021 | 0.263 ± 0.011 | 0.193 ± 0.002
10 | VCSRWFFVFVVR | 0.402 ± 0.033 | 0.424 ± 0.043 | 0.331 ± 0.035 | 0.523 ± 0.014 | 0.409 ± 0.014 | 0.291 ± 0.051 | 0.4917 ± 0.0013 | 0.388 ± 0.011
11 | VCVFFRLCIVWY | 0.061 ± 0.0092 | 0.101 ± 0.0031 | 0.127 ± 0.017 | 0.171 ± 0.0065 | 0.115 ± 0.013 | 0.103 ± 0.021 | 0.145 ± 0.012 | 0.174 ± 0.036
12 | VDGVSFFVVLLC | 0.406 ± 0.087 | 0.503 ± 0.0085 | 0.343 ± 0.029 | 0.537 ± 0.0077 | 0.189 ± 0.0091 | 0.198 ± 0.026 | 0.427 ± 0.0064 | 0.311 ± 0.036
13 | VDSTCLLITLLA | 0.534 ± 0.1 | 0.4893 ± 0.0016 | 0.348 ± 0.036 | 0.506 ± 0.0053 | 0.245 ± 0.0068 | 0.296 ± 0.023 | 0.456 ± 0.02 | 0.41 ± 0.0047
14 | VEIKSKRMLVVI | 0.5115 ± 0.0011 | 0.538 ± 0.039 | 0.426 ± 0.028 | 0.578 ± 0.0069 | 0.287 ± 0.013 | 0.322 ± 0.04 | 0.4749 ± 0.0012 | 0.45639 ± 0.00022
15 | VEQLLYIKATNV | 0.689 ± 0.012 | 0.7025 ± 0.0067 | 0.6088 ± 0.0057 | 0.7288 ± 0.0038 | 0.238 ± 0.029 | 0.29 ± 0.036 | 0.5062 ± 0.0015 | 0.408 ± 0.019
16 | VFDFVFHLRFVV | 0.336 ± 0.032 | 0.419 ± 0.0096 | 0.427 ± 0.028 | 0.468 ± 0.0082 | 0.091 ± 0.019 | 0.0905 ± 0.025 | 0.117 ± 0.011 | 0.1155 ± 0.00063
17 | VFFCLFVLFLSG | 0.302 ± 0.0038 | 0.397 ± 0.0068 | 0.264 ± 0.043 | 0.437 ± 0.0073 | 0.251 ± 0.0072 | 0.282 ± 0.015 | 0.408 ± 0.021 | 0.423 ± 0.18
18 | VFFGLYLVTFTS | 0.219 ± 0.036 | 0.302 ± 0.045 | 0.222 ± 0.026 | 0.379 ± 0.013 | 0.196 ± 0.015 | 0.202 ± 0.025 | 0.3575 ± 0.0028 | 0.409 ± 0.042
19 | VFFHFFVCWRFV | 0.184 ± 0.068 | 0.231 ± 0.013 | 0.25 ± 0.032 | 0.3646 ± 0.00069 | 0.0556 ± 0.014 | 0.0548 ± 0.018 | 0.0857 ± 0.0019 | 0.121 ± 0.019
20 | VFFLLSVYMVMM | 0.145 ± 0.018 | 0.29 ± 0.075 | 0.195 ± 0.055 | 0.3338 ± 0.0028 | 0.182 ± 0.03 | 0.184 ± 0.015 | 0.32 ± 0.02 | 0.307 ± 0.065
